# From IntAct's records for PubMed 26779609
# B1: CDKN2AIP N-terminal-like protein (Homo sapiens), Q96HQ2 (parent)
# chain: MVGGEAAAAVEELVSGVRQAADFAEQFRSYSESEKQWKARMEFILRHLPDYRDPPDGSGRLDQLLSLSMVWANHLFLGCSYNKDLLDKVMEMADGIEVEDLPQFTTRSELMKKHQS
# partner: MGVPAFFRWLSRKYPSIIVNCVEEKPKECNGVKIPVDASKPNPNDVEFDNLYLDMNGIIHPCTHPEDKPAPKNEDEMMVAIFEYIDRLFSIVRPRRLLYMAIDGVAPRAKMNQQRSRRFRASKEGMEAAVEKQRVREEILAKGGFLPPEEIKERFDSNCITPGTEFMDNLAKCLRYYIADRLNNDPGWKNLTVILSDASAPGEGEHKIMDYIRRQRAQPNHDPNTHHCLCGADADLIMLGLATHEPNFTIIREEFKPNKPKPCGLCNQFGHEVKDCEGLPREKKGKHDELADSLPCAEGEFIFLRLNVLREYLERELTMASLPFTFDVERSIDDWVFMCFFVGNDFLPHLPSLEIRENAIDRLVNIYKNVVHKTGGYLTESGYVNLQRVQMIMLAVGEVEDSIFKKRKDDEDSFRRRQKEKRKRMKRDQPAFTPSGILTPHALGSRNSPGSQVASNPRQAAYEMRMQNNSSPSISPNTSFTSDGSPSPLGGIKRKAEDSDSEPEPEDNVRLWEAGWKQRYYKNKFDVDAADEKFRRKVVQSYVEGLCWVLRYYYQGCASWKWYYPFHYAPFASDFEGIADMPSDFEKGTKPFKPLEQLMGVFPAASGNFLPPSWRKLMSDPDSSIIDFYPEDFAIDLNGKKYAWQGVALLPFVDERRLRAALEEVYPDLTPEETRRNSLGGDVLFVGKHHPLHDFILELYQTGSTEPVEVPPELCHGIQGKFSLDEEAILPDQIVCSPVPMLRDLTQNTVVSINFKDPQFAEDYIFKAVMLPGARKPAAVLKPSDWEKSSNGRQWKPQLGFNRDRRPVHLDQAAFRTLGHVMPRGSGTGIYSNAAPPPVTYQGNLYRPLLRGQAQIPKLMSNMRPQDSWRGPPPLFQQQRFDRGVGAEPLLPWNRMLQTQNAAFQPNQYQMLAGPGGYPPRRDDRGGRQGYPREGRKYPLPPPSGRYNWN
# B2: Partner of xrn-2 protein 1 (Caenorhabditis elegans), Q21738 (parent)
# chain: MGKLEDVEAEKKLWESDDAWELRKAFMLAHYDDYPKIQLQCLSQLFINVTLLGCEYSQTLMQKIRTMGAGIAANKDRTKTGSYVKASAAKKRQAVKTSDLEGASDESKKVKMEKSPSPVARESFDERLGKLKASLAMTPHHLTGEQMMKTATNSCLMKWHVNKINQKIEITIDRYVAFRHTFSQYCVDPRDCAINTLIESILSCDAAVHEESYEIRFDGVPVDECYAKSVTRRLAKIKSAVSNGAHTVKGLTTYLDAVNMSMIQNTQKLEGWSQQLDLVTADLLLSSRVLSSTECTKPAMATIANQMSEDVCQLILNDKINVINSMKSHSSLAFQ
# partner: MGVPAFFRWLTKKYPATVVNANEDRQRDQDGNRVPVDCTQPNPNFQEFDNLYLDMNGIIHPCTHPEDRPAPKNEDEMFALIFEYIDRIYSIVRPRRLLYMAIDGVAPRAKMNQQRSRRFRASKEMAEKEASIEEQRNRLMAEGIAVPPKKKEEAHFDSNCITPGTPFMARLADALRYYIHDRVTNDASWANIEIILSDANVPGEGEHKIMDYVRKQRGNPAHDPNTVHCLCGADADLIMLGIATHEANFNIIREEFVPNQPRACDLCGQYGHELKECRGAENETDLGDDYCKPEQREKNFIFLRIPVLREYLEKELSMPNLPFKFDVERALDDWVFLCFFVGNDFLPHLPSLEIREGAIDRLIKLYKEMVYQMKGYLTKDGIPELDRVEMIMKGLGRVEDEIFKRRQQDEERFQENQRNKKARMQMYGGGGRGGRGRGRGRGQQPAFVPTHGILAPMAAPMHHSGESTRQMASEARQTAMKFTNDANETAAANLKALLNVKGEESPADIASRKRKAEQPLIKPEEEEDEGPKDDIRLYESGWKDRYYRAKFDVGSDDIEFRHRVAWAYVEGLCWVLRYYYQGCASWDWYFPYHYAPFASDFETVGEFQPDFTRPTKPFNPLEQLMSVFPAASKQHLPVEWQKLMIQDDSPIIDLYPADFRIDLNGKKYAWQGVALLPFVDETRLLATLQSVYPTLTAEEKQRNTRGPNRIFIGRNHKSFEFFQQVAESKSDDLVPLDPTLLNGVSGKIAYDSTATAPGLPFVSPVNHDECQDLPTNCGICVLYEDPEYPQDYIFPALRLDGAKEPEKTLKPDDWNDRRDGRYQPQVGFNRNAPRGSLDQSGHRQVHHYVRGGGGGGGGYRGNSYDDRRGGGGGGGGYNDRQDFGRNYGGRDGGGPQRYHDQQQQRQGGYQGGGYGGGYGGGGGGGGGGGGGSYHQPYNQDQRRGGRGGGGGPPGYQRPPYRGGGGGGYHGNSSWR
# Variants of: B1
# Settings: with xrn2_human XRN2, Q9H0D6
row,Variant,effect of a mutation on the interaction
1,MVGGEAAAAVEELVSGVRQAADFAEQFRSYSESEKQWKARMEFILRHLPDYRDPPDGSGRLDQLLSLSMVWANHLFLGCSANKDLLDKVMEMADGIEVEDLPQFTTRSELMKKHQS [Y81A],disrupting interaction strength

# Variants of: B2
# Settings: with xrn2_caeel xrn-2, Q9U299
row,Variant,effect of a mutation on the interaction
1,MGKLEDVEAEKKLWESDDAWELRKAFMLAHYDDYPKIQLQCLSQLFINVTLLGCEASQTLMQKIRTMGAGIAANKDRTKTGSYVKASAAKKRQAVKTSDLEGASDESKKVKMEKSPSPVARESFDERLGKLKASLAMTPHHLTGEQMMKTATNSCLMKWHVNKINQKIEITIDRYVAFRHTFSQYCVDPRDCAINTLIESILSCDAAVHEESYEIRFDGVPVDECYAKSVTRRLAKIKSAVSNGAHTVKGLTTYLDAVNMSMIQNTQKLEGWSQQLDLVTADLLLSSRVLSSTECTKPAMATIANQMSEDVCQLILNDKINVINSMKSHSSLAFQ [Y56A],disrupting interaction strength
2,MGKLEDVEAEKKLWESDDAWELRKAFMLAHYDDYPKIQLQCLSQLFINVTLLGAEYSQTLMQKIRTMGAGIAANKDRTKTGSYVKASAAKKRQAVKTSDLEGASDESKKVKMEKSPSPVARESFDERLGKLKASLAMTPHHLTGEQMMKTATNSCLMKWHVNKINQKIEITIDRYVAFRHTFSQYCVDPRDCAINTLIESILSCDAAVHEESYEIRFDGVPVDECYAKSVTRRLAKIKSAVSNGAHTVKGLTTYLDAVNMSMIQNTQKLEGWSQQLDLVTADLLLSSRVLSSTECTKPAMATIANQMSEDVCQLILNDKINVINSMKSHSSLAFQ [C54A],disrupting interaction strength
